{"source": "patent US20250186535A1", "about": "“OPHTALMIC COMPOSITIONS AND METHODS OF USING SAME” (Tarsier Pharma Ltd., priority 2021, published 2025)", "experiment": "Solubility of drug substance in water", "type": "physicochemical", "protocol": "Drug Substance [TRS]: is a trifluoroacetate [TFA] salt of phosphorylcholine-tuftsin conjugate represented by Formula 1, SEQ ID NO: 2 (as shown herein). Molecular formula: C43H68N13013P, Appearance: Yellow to orange solid. Solubility: >40 mg/ml in water.", "note": "*1 amine or outer side, *2 acyl side, *3 side chain or, on linkers, in order; H or OH if unused. Where a SMILES comes first, the peptide text is derived from it. [ ]: non-standard residue; d: D form. X1 = C[N+](C)(C)CCOP(=O)([O-])Oc1ccc(/N=N/c2cc(C[C@H](N[*:1])C(=O)[*:2])ccc2O)cc1", "data": [{"smiles": "C[C@@H](O)[C@H](N)C(=O)N[C@@H](CCCCN)C(=O)N1CCC[C@H]1C(=O)N[C@@H](CCCNC(=N)N)C(=O)NCC(=O)N[C@@H](Cc1ccc(O)c(/N=N/c2ccc(OP(=O)([O-])OCC[N+](C)(C)C)cc2)c1)C(=O)O", "note": "[TRS, phosphorylcholine-tuftsin conjugate] (H-TKPRG[X1]-OH)", "values": [{"measurement": "solubility", "value": "> 40", "unit": "mg/mL"}]}]}
